The text below walks through data of PMC314469, “Protein Interaction Networks by Proteome Peptide Scanning” (PLoS Biology, 2004).

To fix the notation:
T1: Yhr016c SH3 (YSC84_YEAST), P32793
T1 chain: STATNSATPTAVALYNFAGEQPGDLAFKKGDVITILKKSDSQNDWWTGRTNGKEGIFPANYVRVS

T2: Rvs167 SH3 (RV167_YEAST), P39743
T2 chain: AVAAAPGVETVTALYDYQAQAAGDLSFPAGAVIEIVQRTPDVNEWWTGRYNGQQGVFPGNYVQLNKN

T3: Boi2 SH3 (BOI2_YEAST), P39969
T3 chain: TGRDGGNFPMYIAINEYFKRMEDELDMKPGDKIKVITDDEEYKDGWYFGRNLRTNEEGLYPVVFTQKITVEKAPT

T4: Boi1 SH3 (BOI1_YEAST), P38041
T4 chain: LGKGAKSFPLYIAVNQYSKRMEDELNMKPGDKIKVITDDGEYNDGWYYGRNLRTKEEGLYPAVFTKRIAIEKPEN

T5: Yfr024 SH3 (LSB3_YEAST), P43603
T5 chain: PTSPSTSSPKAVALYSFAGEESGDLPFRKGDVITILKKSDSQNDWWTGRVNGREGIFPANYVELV

T6: Myo5 SH3 (MYO5_YEAST), Q04439
T6 chain: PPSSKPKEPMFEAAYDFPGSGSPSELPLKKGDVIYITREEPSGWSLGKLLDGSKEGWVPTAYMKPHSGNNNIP

B1: YFL047W 497-510 (peptide)
chain: SYMDKIYPDLPNDK
B2: YMR320W 69-82 (peptide)
chain: SYISRKYPRAPAFI
B3: YNL331C 2-15 (peptide)
chain: TDLFKPLPEPPTEL
B4: YGR140W 417-430 (peptide)
chain: STNAKKDPFPPPKD
B5: YLR244C 372-385 (peptide)
chain: TARNKKSPGGPRQR
B6: YBL111C 334-347 (peptide)
chain: SRVTRKRPREPKST
B7: YNL226W 113-126 (peptide)
chain: SVNIKSWPLKPSNF
B8: YER118C 4-17 (peptide)
chain: SSKIRPTPRKPSRM
B9: YHR061C 244-257 (peptide)
chain: SVSEKTNPSSPSVS
B10: YPL242C 73-86 (peptide)
chain: SSVSKLKPSLPNKL
B11: YOR353C 203-216 (peptide)
chain: SRYLKDHPNLPTPE
B12: YKL215C 38-51 (peptide)
chain: SVDPKNYPDAPLEG
B13: YER163C 43-56 (peptide)
chain: STDHRGTPANPGRV
B14: YBR066C 94-107 (peptide)
chain: TASGKTSPILPLQN

One experiment has as its target T1, Yhr016c SH3 (YSC84_YEAST), P32793. In words: SPOT array.
With B1, the normalised SPOT signal, Boehringer light units (BLU); mean over the file's lines of this peptide came to 37.2.
As for B2, the normalised SPOT signal, Boehringer light units (BLU); mean over the file's lines of this peptide came to 28.8.
As to B3, the normalised SPOT signal, Boehringer light units (BLU); mean over the file's lines of this peptide came to 31.5.
For B4, the normalised SPOT signal, Boehringer light units (BLU); mean over the file's lines of this peptide turned out to be 26.7.
With B5, the normalised SPOT signal, Boehringer light units (BLU); mean over the file's lines of this peptide amounted to 28.9.
Consider B6, for which the normalised SPOT signal, Boehringer light units (BLU); mean over the file's lines of this peptide came out at 49.5.
Consider B7, for which the normalised SPOT signal, Boehringer light units (BLU); mean over the file's lines of this peptide is 22.6.
B8: the normalised SPOT signal, Boehringer light units (BLU); mean over the file's lines of this peptide is 697.
B9 displayed a normalised SPOT signal, Boehringer light units (BLU); mean over the file's lines of this peptide of 12.6.
In turn, B10 registered a normalised SPOT signal, Boehringer light units (BLU); mean over the file's lines of this peptide of 39.2.
Turning to B11, the normalised SPOT signal, Boehringer light units (BLU); mean over the file's lines of this peptide was found to be 23.3.
Same read-out and setting: in the case of B12 it was 46.1.
In turn, B13 showed a normalised SPOT signal, Boehringer light units (BLU); mean over the file's lines of this peptide of 30.5.
For B14, the normalised SPOT signal, Boehringer light units (BLU); mean over the file's lines of this peptide stood at 5.1.

Another experiment deals with Sho1 SH3 (SHO1_YEAST), P40073. In words: SPOT array.
Chain of Sho1 SH3 (SHO1_YEAST), P40073 (P40073 295-366): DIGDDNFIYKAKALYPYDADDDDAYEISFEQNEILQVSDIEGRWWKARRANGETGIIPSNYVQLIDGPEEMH
B1 registered a normalised SPOT signal, Boehringer light units (BLU); mean over the file's lines of this peptide of 138.
As to B2, the normalised SPOT signal, Boehringer light units (BLU); mean over the file's lines of this peptide was 50.
B3 registered a normalised SPOT signal, Boehringer light units (BLU); mean over the file's lines of this peptide of 14700.
In the case of B4, the normalised SPOT signal, Boehringer light units (BLU); mean over the file's lines of this peptide stood at 85.
The molecule B5 yielded a normalised SPOT signal, Boehringer light units (BLU); mean over the file's lines of this peptide of 109.
The same measure, in the same setting: under B6 stands 95; under B7, 49.8.
Take B8: the normalised SPOT signal, Boehringer light units (BLU); mean over the file's lines of this peptide was 144.
Turning to B9, the normalised SPOT signal, Boehringer light units (BLU); mean over the file's lines of this peptide is 111.
As to B10, the normalised SPOT signal, Boehringer light units (BLU); mean over the file's lines of this peptide worked out at 30.7.
Molecule B11 came in with a normalised SPOT signal, Boehringer light units (BLU); mean over the file's lines of this peptide of 94.1.
For B12, the normalised SPOT signal, Boehringer light units (BLU); mean over the file's lines of this peptide came to 28.2.
Same read-out and setting: in the case of B13 it was 60.8; in that of B14, 0.1.

A further experiment has as its target T2, Rvs167 SH3 (RV167_YEAST), P39743. In words: SPOT array.
The molecule B1 showed a normalised SPOT signal, Boehringer light units (BLU); mean over the file's lines of this peptide of 75.3.
Take B2: the normalised SPOT signal, Boehringer light units (BLU); mean over the file's lines of this peptide worked out at 100.
Turning to B3, the normalised SPOT signal, Boehringer light units (BLU); mean over the file's lines of this peptide was 18.8.
B4 registered a normalised SPOT signal, Boehringer light units (BLU); mean over the file's lines of this peptide of 39.8.
Regarding B5, the normalised SPOT signal, Boehringer light units (BLU); mean over the file's lines of this peptide was 84.
Still for that read-out and setting: under B6 stands 162; under B7, 61.7; under B8, 7920.
As to B9, the normalised SPOT signal, Boehringer light units (BLU); mean over the file's lines of this peptide turned out to be 2.
In turn, B10 came in with a normalised SPOT signal, Boehringer light units (BLU); mean over the file's lines of this peptide of 176.
B11 had a normalised SPOT signal, Boehringer light units (BLU); mean over the file's lines of this peptide of 104.
Consider B12, for which the normalised SPOT signal, Boehringer light units (BLU); mean over the file's lines of this peptide is 17.6.
Turning to B13, the normalised SPOT signal, Boehringer light units (BLU); mean over the file's lines of this peptide worked out at 23.6.
In turn, B14 displayed a normalised SPOT signal, Boehringer light units (BLU); mean over the file's lines of this peptide of 35.8.

Another experiment concerns the target T3, Boi2 SH3 (BOI2_YEAST), P39969. In words: SPOT array.
Turning to B1, the normalised SPOT signal, Boehringer light units (BLU); mean over the file's lines of this peptide is 22.8.
B2: the normalised SPOT signal, Boehringer light units (BLU); mean over the file's lines of this peptide turned out to be 32.8.
B3 showed a normalised SPOT signal, Boehringer light units (BLU); mean over the file's lines of this peptide of 23.1.
With B4, the normalised SPOT signal, Boehringer light units (BLU); mean over the file's lines of this peptide was 0.9.
B5 registered a normalised SPOT signal, Boehringer light units (BLU); mean over the file's lines of this peptide of 45.9.
In turn, B6 returned a normalised SPOT signal, Boehringer light units (BLU); mean over the file's lines of this peptide of 40.5.
On to B7, for which the normalised SPOT signal, Boehringer light units (BLU); mean over the file's lines of this peptide was 0.
The same measure, in the same setting: under B8 stands 58.4; under B9, 29.4; under B10, 50.5.
In turn, B11 had a normalised SPOT signal, Boehringer light units (BLU); mean over the file's lines of this peptide of 0.
In turn, B12 registered a normalised SPOT signal, Boehringer light units (BLU); mean over the file's lines of this peptide of 24.7.
Still for that read-out and setting: in the case of B13 it was 0.
Same read-out and setting: in the case of B14 it was 20.8.

Another experiment concerns the target T4, Boi1 SH3 (BOI1_YEAST), P38041. Put plainly: SPOT array.
In turn, B1 came in with a normalised SPOT signal, Boehringer light units (BLU); mean over the file's lines of this peptide of 221.
Molecule B2 registered a normalised SPOT signal, Boehringer light units (BLU); mean over the file's lines of this peptide of 3080.
The molecule B3 had a normalised SPOT signal, Boehringer light units (BLU); mean over the file's lines of this peptide of 32.5.
The molecule B4 showed a normalised SPOT signal, Boehringer light units (BLU); mean over the file's lines of this peptide of 33.
Still for that read-out and setting: under B5 stands 273; under B6, 794; under B7, 76.2.
On to B8, for which the normalised SPOT signal, Boehringer light units (BLU); mean over the file's lines of this peptide amounted to 982.
The same measure, in the same setting: in the case of B9 it was 124; in that of B10, 332; in that of B11, 208.
Regarding B12, the normalised SPOT signal, Boehringer light units (BLU); mean over the file's lines of this peptide is 114.
Molecule B13 gave a normalised SPOT signal, Boehringer light units (BLU); mean over the file's lines of this peptide of 26.3.
Molecule B14 gave a normalised SPOT signal, Boehringer light units (BLU); mean over the file's lines of this peptide of 106.

The next experiment deals with T5, Yfr024 SH3 (LSB3_YEAST), P43603. In words: SPOT array.
In turn, B1 registered a normalised SPOT signal, Boehringer light units (BLU); mean over the file's lines of this peptide of 224.
Still for that read-out and setting: under B2 stands 212; under B3, 129.
In turn, B4 came in with a normalised SPOT signal, Boehringer light units (BLU); mean over the file's lines of this peptide of 52.1.
Molecule B5 registered a normalised SPOT signal, Boehringer light units (BLU); mean over the file's lines of this peptide of 423.
Still for that read-out and setting: under B6 stands 674; under B7, 58.3.
Turning to B8, the normalised SPOT signal, Boehringer light units (BLU); mean over the file's lines of this peptide turned out to be 9730.
B9 had a normalised SPOT signal, Boehringer light units (BLU); mean over the file's lines of this peptide of 0.
In turn, B10 came in with a normalised SPOT signal, Boehringer light units (BLU); mean over the file's lines of this peptide of 1380.
The molecule B11 returned a normalised SPOT signal, Boehringer light units (BLU); mean over the file's lines of this peptide of 99.8.
For B12, the normalised SPOT signal, Boehringer light units (BLU); mean over the file's lines of this peptide worked out at 48.2.
B13: the normalised SPOT signal, Boehringer light units (BLU); mean over the file's lines of this peptide turned out to be 6.2.
In the case of B14, the normalised SPOT signal, Boehringer light units (BLU); mean over the file's lines of this peptide came to 2.6.

The next experiment addresses T6, Myo5 SH3 (MYO5_YEAST), Q04439. Put plainly: SPOT array.
For B1, the normalised SPOT signal, Boehringer light units (BLU); mean over the file's lines of this peptide was 83.
B2 yielded a normalised SPOT signal, Boehringer light units (BLU); mean over the file's lines of this peptide of 740.
With B3, the normalised SPOT signal, Boehringer light units (BLU); mean over the file's lines of this peptide was determined as 23.4.
Molecule B4 had a normalised SPOT signal, Boehringer light units (BLU); mean over the file's lines of this peptide of 198.
B5 registered a normalised SPOT signal, Boehringer light units (BLU); mean over the file's lines of this peptide of 593.
B6 came in with a normalised SPOT signal, Boehringer light units (BLU); mean over the file's lines of this peptide of 829.
B7 registered a normalised SPOT signal, Boehringer light units (BLU); mean over the file's lines of this peptide of 56.5.
Molecule B8 displayed a normalised SPOT signal, Boehringer light units (BLU); mean over the file's lines of this peptide of 673.
Same read-out and setting: in the case of B9 it was 127; in that of B10, 418.
The same measure, in the same setting: in the case of B11 it was 69.2.
B12 returned a normalised SPOT signal, Boehringer light units (BLU); mean over the file's lines of this peptide of 91.1.
In turn, B13 yielded a normalised SPOT signal, Boehringer light units (BLU); mean over the file's lines of this peptide of 257.
Same read-out and setting: in the case of B14 it was 290.
